The record followed here is PMC4980022.

Several values for one entry are separate records, joined by “and”; a condition that tells them apart may be missing. Equal values may be shown once.

The stoichiometry N is the number of molecules, sites or subunits per partner or assembly.

Experiment [1] concerns the target PorK lipoprotein (Porphyromonas gingivalis W50 (endogenous in W50ABK*WbaP)). Description: negative-stain electron microscopy and electron tomography; purified PorK/N complex (fraction 6 of the CsCl gradient) stained with uranyl acetate.
Experiment [2] has the same target. Description: densitometry of Coomassie stained gels; purified PorK/N complex on SDS-PAGE; PorK band against the combined PorN bands.
The target in experiment [3] is PorN (Porphyromonas gingivalis W50 (endogenous in W50ABK*WbaP)). Briefly: negative-stain electron microscopy and electron tomography; purified PorK/N complex (fraction 6 of the CsCl gradient) stained with uranyl acetate.
The target of experiment [4] is PorK lipoprotein (Porphyromonas gingivalis W50 (endogenous in W50ABK*WbaP)). Description: high sensitivity amino acid analysis of the bands; purified PorK/N complex separated on SDS-PAGE, transferred to PVDF, PorK and PorN bands excised.

As to PorK lipoprotein (natural protein), the stoichiometry N in experiment [1] lay in the range of 32 to 36 subunits.
In the case of PorN (natural protein), the stoichiometry N (PorN per PorK) in experiment [2] was 1 and 1.2; in experiment [4], 1.2. This substance had a stoichiometry N in experiment [3] of 32 to 36 subunits.
